{"source": "patent US20120076728A1", "about": "(University of California, published 2012)", "molecules": {"B1": {"name": "CEA specific, cyclic peptide SDWVCEFIKSQWFCNVLASG (peptide)", "peptide": "SDWVCEFIKSQWFCNVLASG-HyNic", "modifications": "also: cyclic, bond type and places not given here", "notes": "also called anti-CEA peptide; CEA specific peptide"}}, "key": {"[1]": {"molecular_target": "carcinoembryonic antigen (CEA) expressed by LS174T human colon carcinoma tumors (human (LS174T human colon carcinoma cells)) (UniProt P06731)", "experiment": "cell-based or functional assay"}, "[2]": {"molecular_target": "T1, carcinoembryonic antigen (CEA), form not stated (UniProt P06731 35-685, limits assumed)", "T1 sequence (looked up)": "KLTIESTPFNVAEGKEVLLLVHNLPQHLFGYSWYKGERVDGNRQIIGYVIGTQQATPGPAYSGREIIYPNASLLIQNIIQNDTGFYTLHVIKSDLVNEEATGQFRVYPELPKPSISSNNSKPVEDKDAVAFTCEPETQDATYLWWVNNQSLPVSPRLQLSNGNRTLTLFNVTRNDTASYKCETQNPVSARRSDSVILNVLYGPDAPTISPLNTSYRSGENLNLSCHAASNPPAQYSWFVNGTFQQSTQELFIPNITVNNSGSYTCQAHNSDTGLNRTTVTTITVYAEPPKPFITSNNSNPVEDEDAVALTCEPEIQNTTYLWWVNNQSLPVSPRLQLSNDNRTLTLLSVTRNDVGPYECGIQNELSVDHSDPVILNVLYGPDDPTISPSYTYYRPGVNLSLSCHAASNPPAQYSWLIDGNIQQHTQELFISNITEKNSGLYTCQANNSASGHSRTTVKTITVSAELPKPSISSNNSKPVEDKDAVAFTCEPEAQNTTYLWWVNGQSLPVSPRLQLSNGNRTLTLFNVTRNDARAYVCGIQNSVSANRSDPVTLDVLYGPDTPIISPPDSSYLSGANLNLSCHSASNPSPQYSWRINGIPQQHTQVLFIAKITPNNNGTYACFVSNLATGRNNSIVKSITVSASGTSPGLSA", "experiment": "not stated; given as a property of the peptide"}}, "note": "No end group written: not given here.", "data": [{"molecule": "anti-CEA T84.66 diabody (Db)", "values": [{"measurement": "CEA positive-to-negative tumor uptake ratio at 51 h", "setting": "[1]", "result": 13}]}, {"molecule": "B1", "values": [{"measurement": "Kd", "setting": "[2]", "result": 0.16, "unit": "µM"}]}]}
